Among the data in the supplement of paper PMC10567573 are protein stability index values, retold here.

B1: EPB41L3 (parent)
chain: SDYISEFRFAPNHTKELEDKVIEL
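Also: lentivirally expressed fusions sorted by FACS into six bins by GFP to DsRed ratio, PSI derived from sequencing read proportions per bin multiplied by bin number.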

The variants in this series derive from B1. Nature of the series: protein stability index of a GFP-peptide fusion (GPS, HEK-293T) (PSI 1-6); higher = more stable. To be noted: c terminus: a fixed tail appended.
For the variant SDYITEFRFAPNHTKELEDKVIEL, the protein stability index came to 2.18.
As to SDYIFEFRFAPNHTKELEDKVIEL, the protein stability index is 1.74.
Then SDYIMEFRFAPNHTKELEDKVIEL, with 1.27.
Then SDYICEFRFAPNHTKELEDKVIEL, with 1.97; and SDYIIEFRFAPNHTKELEDKVIEL, with 2.02; and SDYIAEFRFAPNHTKELEDKVIEL, with 1.93.
In the case of SDYIPEFRFAPNHTKELEDKVIEL it was 2.24; in that of SDYIREFRFAPNHTKELEDKVIEL, 2.62.
For SDYIYEFRFAPNHTKELEDKVIEL, the protein stability index turned out to be 1.66.
In the case of SDYILEFRFAPNHTKELEDKVIEL it was 1.92; in that of SDYIEEFRFAPNHTKELEDKVIEL, 3.79.
In the case of SDYIKEFRFAPNHTKELEDKVIEL it was 2.75.
As to SDYINEFRFAPNHTKELEDKVIEL, the protein stability index was found to be 2.22.
Then SDYIDEFRFAPNHTKELEDKVIEL, with 3.8; and SDYIHEFRFAPNHTKELEDKVIEL, with 2.15; and SDYIGEFRFAPNHTKELEDKVIEL, with 1.8.
Regarding SDYIVEFRFAPNHTKELEDKVIEL, the protein stability index is 2.19.
In the case of SDYIQEFRFAPNHTKELEDKVIEL it was 2.7; in that of SDYIWEFRFAPNHTKELEDKVIEL, 1.82.
In the case of YDYISEFRFAPNHTKELEDKVIEL it was 2.38; in that of RDYISEFRFAPNHTKELEDKVIEL, 1.85; in that of GDYISEFRFAPNHTKELEDKVIEL, 2.12.
In the case of PDYISEFRFAPNHTKELEDKVIEL it was 2.71; in that of VDYISEFRFAPNHTKELEDKVIEL, 1.74; in that of MDYISEFRFAPNHTKELEDKVIEL, 1.92.
With QDYISEFRFAPNHTKELEDKVIEL, the protein stability index is 2.45.
On to DDYISEFRFAPNHTKELEDKVIEL, for which the protein stability index is 2.25.
Then NDYISEFRFAPNHTKELEDKVIEL, with 1.94; and IDYISEFRFAPNHTKELEDKVIEL, with 1.71.
Then FDYISEFRFAPNHTKELEDKVIEL, with 1.96.
In the case of CDYISEFRFAPNHTKELEDKVIEL it was 1.75; in that of KDYISEFRFAPNHTKELEDKVIEL, 1.72.
On to HDYISEFRFAPNHTKELEDKVIEL, for which the protein stability index came to 2.1.
Then TDYISEFRFAPNHTKELEDKVIEL, with 2.01.
With LDYISEFRFAPNHTKELEDKVIEL, the protein stability index came out at 2.19.
Then WDYISEFRFAPNHTKELEDKVIEL, with 1.76; and EDYISEFRFAPNHTKELEDKVIEL, with 2.15; and ADYISEFRFAPNHTKELEDKVIEL, with 2.38.
As for SDEISEFRFAPNHTKELEDKVIEL, the protein stability index is 4.43.
For the variant SDSISEFRFAPNHTKELEDKVIEL, the protein stability index was 3.59.
In the case of SDKISEFRFAPNHTKELEDKVIEL it was 2.69.
As for SDFISEFRFAPNHTKELEDKVIEL, the protein stability index was 1.91.
Then SDRISEFRFAPNHTKELEDKVIEL, with 2.34.
In the case of SDPISEFRFAPNHTKELEDKVIEL it was 2.4.
In the case of SDGISEFRFAPNHTKELEDKVIEL it was 2.94; in that of SDWISEFRFAPNHTKELEDKVIEL, 2.39; in that of SDNISEFRFAPNHTKELEDKVIEL, 3.18.
Regarding SDQISEFRFAPNHTKELEDKVIEL, the protein stability index came to 3.28.
Consider SDMISEFRFAPNHTKELEDKVIEL, for which the protein stability index worked out at 2.29.
Consider SDDISEFRFAPNHTKELEDKVIEL, for which the protein stability index is 4.03.
Then SDAISEFRFAPNHTKELEDKVIEL, with 2.76; and SDTISEFRFAPNHTKELEDKVIEL, with 3.06.
In the case of SDIISEFRFAPNHTKELEDKVIEL it was 1.86; in that of SDCISEFRFAPNHTKELEDKVIEL, 2.38.
In the case of SDHISEFRFAPNHTKELEDKVIEL it was 2.91; in that of SDLISEFRFAPNHTKELEDKVIEL, 2.08; in that of SDVISEFRFAPNHTKELEDKVIEL, 1.97.
SDYISHFRFAPNHTKELEDKVIEL: the protein stability index amounted to 1.43.
For SDYISIFRFAPNHTKELEDKVIEL, the protein stability index amounted to 2.12.
In the case of SDYISYFRFAPNHTKELEDKVIEL it was 1.84; in that of SDYISNFRFAPNHTKELEDKVIEL, 1.83; in that of SDYISLFRFAPNHTKELEDKVIEL, 1.84.
Then SDYISAFRFAPNHTKELEDKVIEL, with 1.67; and SDYISVFRFAPNHTKELEDKVIEL, with 2.06; and SDYISKFRFAPNHTKELEDKVIEL, with 1.85.
Take SDYISRFRFAPNHTKELEDKVIEL: the protein stability index was determined as 2.13.
In the case of SDYISWFRFAPNHTKELEDKVIEL it was 2.23; in that of SDYISMFRFAPNHTKELEDKVIEL, 1.92.
Then SDYISSFRFAPNHTKELEDKVIEL, with 2; and SDYISQFRFAPNHTKELEDKVIEL, with 2.02; and SDYISGFRFAPNHTKELEDKVIEL, with 2.28.
In the case of SDYISTFRFAPNHTKELEDKVIEL it was 1.82.
Regarding SDYISCFRFAPNHTKELEDKVIEL, the protein stability index is 1.92.
Then SDYISFFRFAPNHTKELEDKVIEL, with 1.52.
Then SDYISDFRFAPNHTKELEDKVIEL, with 1.93; and SDYISPFRFAPNHTKELEDKVIEL, with 2.43; and SDYISEDRFAPNHTKELEDKVIEL, with 4.89.
Then SDYISECRFAPNHTKELEDKVIEL, with 4.2; and SDYISEARFAPNHTKELEDKVIEL, with 4.4; and SDYISEERFAPNHTKELEDKVIEL, with 4.96.
Turning to SDYISEGRFAPNHTKELEDKVIEL, the protein stability index is 4.91.
In the case of SRYISEFRFAPNHTKELEDKVIEL it was 2.02; in that of SNYISEFRFAPNHTKELEDKVIEL, 1.88.
In the case of SYYISEFRFAPNHTKELEDKVIEL, the protein stability index came to 1.75.
Then SMYISEFRFAPNHTKELEDKVIEL, with 2.25; and SGYISEFRFAPNHTKELEDKVIEL, with 1.45.
For the variant SCYISEFRFAPNHTKELEDKVIEL, the protein stability index is 2.46.
In the case of SIYISEFRFAPNHTKELEDKVIEL it was 1.9; in that of SVYISEFRFAPNHTKELEDKVIEL, 2.02; in that of SAYISEFRFAPNHTKELEDKVIEL, 2.21.
In the case of SQYISEFRFAPNHTKELEDKVIEL it was 1.62; in that of SLYISEFRFAPNHTKELEDKVIEL, 2.18.
In the case of SWYISEFRFAPNHTKELEDKVIEL it was 1.89; in that of SKYISEFRFAPNHTKELEDKVIEL, 2.45.
